The numbers were not newly measured in publication PMC2574613, which cites them from elsewhere.

This data set addresses glycoprotein Ibα (Homo sapiens) (UniProt P07359).

Sequence of glycoprotein Ibα (Homo sapiens) (P07359 17-652): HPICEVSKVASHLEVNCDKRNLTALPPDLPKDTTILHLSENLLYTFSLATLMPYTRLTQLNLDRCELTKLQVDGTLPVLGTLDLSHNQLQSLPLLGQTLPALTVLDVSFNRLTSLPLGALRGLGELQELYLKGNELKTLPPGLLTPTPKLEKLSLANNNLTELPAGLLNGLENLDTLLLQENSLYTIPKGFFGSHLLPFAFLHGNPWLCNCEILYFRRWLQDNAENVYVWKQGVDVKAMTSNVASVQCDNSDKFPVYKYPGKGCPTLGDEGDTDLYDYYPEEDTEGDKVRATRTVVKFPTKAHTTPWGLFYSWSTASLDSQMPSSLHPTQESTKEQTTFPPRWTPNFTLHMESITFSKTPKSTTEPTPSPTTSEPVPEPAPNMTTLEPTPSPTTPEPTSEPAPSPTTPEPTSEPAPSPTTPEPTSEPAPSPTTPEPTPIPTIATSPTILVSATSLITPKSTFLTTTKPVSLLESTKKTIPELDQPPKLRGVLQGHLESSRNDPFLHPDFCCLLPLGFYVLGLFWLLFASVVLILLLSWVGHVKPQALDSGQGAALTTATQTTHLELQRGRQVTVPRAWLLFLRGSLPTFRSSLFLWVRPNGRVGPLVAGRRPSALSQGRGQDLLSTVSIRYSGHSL
Sequence of GspB N-terminal basic region (Q939N5 237-603): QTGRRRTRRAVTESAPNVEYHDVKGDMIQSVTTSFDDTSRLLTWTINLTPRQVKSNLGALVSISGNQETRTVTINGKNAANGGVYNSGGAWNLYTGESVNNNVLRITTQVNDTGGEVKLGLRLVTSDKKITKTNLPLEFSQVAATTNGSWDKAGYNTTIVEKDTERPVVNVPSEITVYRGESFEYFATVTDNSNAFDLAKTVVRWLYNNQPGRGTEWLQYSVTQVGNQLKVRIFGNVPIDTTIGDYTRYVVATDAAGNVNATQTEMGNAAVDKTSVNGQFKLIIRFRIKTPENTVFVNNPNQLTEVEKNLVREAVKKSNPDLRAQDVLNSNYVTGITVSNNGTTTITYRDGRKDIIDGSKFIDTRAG

For “GspB N-terminal basic region (from UniProt Q939N5)”, the Kd is 23.8 nM.

The Kd is a measure of binding affinity in units of concentration.
